Experimental data published in patent publication US20240261333A1 (published 2024).

How the values were obtained:
Assay in all cases: co-IP, anti-FLAG, lysate of cells with N-FLAG B3GNT2; mass spectrometry
RBM39 = target: T1, RBM39 (human, UniProt Q14498-3 2-508, limits assumed)
T1 construct: also called NP_001310351.1 (+3)
T1 sequence (looked up): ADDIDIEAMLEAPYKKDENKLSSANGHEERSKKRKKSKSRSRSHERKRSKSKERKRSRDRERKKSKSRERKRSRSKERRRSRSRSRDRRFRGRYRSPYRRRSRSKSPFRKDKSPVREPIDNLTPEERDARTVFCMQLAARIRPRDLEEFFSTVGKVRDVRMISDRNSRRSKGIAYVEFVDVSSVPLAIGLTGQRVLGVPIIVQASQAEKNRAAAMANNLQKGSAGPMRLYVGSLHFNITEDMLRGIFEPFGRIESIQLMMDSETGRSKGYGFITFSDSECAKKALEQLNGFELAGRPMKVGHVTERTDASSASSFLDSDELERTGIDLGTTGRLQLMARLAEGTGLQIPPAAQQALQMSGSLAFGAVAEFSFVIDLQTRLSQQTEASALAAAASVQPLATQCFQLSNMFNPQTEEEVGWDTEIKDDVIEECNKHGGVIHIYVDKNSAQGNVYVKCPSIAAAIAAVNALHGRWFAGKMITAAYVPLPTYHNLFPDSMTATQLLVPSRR

LSM12 = target: T2, LSM12 (human, UniProt Q3MHD2 2-195)
T2 construct: also called NP_689557.1
T2 sequence (Q3MHD2 2-195 limits assumed): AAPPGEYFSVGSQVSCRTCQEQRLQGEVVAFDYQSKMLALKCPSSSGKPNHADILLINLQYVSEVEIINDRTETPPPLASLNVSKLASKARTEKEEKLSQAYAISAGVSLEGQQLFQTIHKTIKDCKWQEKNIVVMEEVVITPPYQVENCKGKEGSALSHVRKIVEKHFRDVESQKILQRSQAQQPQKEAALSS

RPS3 = RPS3 (human, UniProt P23396 2-243)
SERBP1 = target: T3, SERBP1 (human, UniProt Q8NC51 2-408)
T3 construct: also called NP_001018077.1 (+1)
T3 sequence (looked up): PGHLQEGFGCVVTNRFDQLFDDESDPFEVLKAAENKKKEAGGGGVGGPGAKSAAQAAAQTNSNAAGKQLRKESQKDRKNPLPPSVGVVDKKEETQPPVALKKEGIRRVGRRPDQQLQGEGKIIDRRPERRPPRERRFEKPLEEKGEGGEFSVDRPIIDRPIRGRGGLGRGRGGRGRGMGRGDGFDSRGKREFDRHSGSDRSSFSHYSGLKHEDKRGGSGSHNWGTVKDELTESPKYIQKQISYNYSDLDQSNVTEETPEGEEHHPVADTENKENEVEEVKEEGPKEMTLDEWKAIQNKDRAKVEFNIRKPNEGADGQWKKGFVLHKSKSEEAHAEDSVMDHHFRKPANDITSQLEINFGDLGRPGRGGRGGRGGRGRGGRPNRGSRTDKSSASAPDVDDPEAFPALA

- co-IP mass spectrometry count (RBM39): 4
- co-IP mass spectrometry count (LSM12): 4
- co-IP mass spectrometry count (RPS3): 10
- co-IP mass spectrometry count (SERBP1): 0
B1: N-terminal FLAG tagged B3GNT2 (enzyme, human, UniProt Q9NY97 1-397, looked up)
chain: MSVGRRRIKLLGILMMANVFIYFIMEVSKSSSQEKNGKGEVIIPKEKFWKISTPPEAYWNREQEKLNRQYNPILSMLTNQTGEAGRLSNISHLNYCEPDLRVTSVVTGFNNLPDRFKDFLLYLRCRNYSLLIDQPDKCAKKPFLLLAIKSLTPHFARRQAIRESWGQESNAGNQTVVRVFLLGQTPPEDNHPDLSDMLKFESEKHQDILMWNYRDTFFNLSLKEVLFLRWVSTSCPDTEFVFKGDDDVFVNTHHILNYLNSLSKTKAKDLFIGDVIHNAGPHRDKKLKYYIPEVVYSGLYPPYAGGGGFLYSGHLALRLYHITDQVHLYPIDDVYTGMCLQKLGLVPEKHKGFRTFDIEEKNKNNICSYVDLMLVHSRKPQEMIDIWSQLQSAHLKC
notes: Overexpressed in cells and pulled down from the lysate with mouse anti-FLAG antibody; also called N-FLAG B3GNT2; N-term FLAG; not shown: N-terminal FLAG tag
